Assay: yeast display, Sf9 membrane polyspecificity reagent, FACS + sequencing; frameworks hold sequencing errors
Procedure, shortened: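 Synthetic nanobody libraries on Saccharomyces cerevisiae BJ5465 were galactose-induced for 36–48 hours, stained 1 hour at 4 °C with 10% biotinylated, detergent-solubilized Sf9 membrane reagent and enriched on streptavidin microbeads. FACS then separated cells into low and high (top ~1%) gates by anti-HA (expression) and streptavidin (reagent binding) fluorescence. Genes were colony-PCR amplified, MiSeq 2 × 250 sequenced and CDR-length filtered. A clone's polyreactivity label is that of its gate of origin.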

| Sequence | polyreactivity (PSR sort gate) |
| --- | --- |
| QVQLVESGGGLVQAGGSLRLSCAASGRTFRVYAMGWYRQAPGKEREFVAAISYSGGRTYYADSVKGRFTISRDNAKNTVYLQMNSLKPEDTAVYYCAAKTNRGSYSYDYWGQGTQVTVSS | high polyreactivity |
| QVQLVESGGGLVQAGGSLRLSCAASGRTFRVYAMGWYRQAPGKERELVAAISWSDGSTYYADSVKGRFTISRDYAKNTVYLQMNSLKPEDTAVYYCNARVRVPVTLHDYWGQCTQVTVSS | high polyreactivity |
| QVQLVESGGGLVQAGGSLRLSCAASGRTFRWYAMGWYRKAPGKEWELVAAISYRGGSTYADSVKGRFTISRDNEKNTVNLQMNSLKPEDTAVYYCAAKYYDYGPYYYWGQGTQETVSS | high polyreactivity |
| QVQLVESGGGLVQAGGSLRLSCAASGRTFRWYAMGWYRQAPGKERELVASITWSGGSTYYADSVKGRFTISRDNAKNSVYLQMNSLKPEDTAVYYCNRVLGVSLYEGNYWGQGTQVTVSS | high polyreactivity |
| QVQLVESGGGLVQAGGSLRLSCAASGRTFRYAMGWYRQSPGKERELVAGITTRGTSTYYADSVKGRFTISRDNAKNTVYLQMNSLKPEDTAVYYCNARPARAVYIHTPTYRYDYWGQGTQVTVSS | high polyreactivity |
| QVQLVESGGGLVQAGGSLRLSCAASGRTFRYNAMGWYRQAPGKERELVAAINWNGGSTYYADSVKGRFTISRDNAKNTVYLQMNSLKPEDTAVYYCNADFYHRYDWGQGTQVTVSS | high polyreactivity |
| QVQLVESGGGLVQAGGSLRLSCAASGRTFRYNAMGWYRQAPGKERELVAAISRSGGRTYYADSVKGRFTISRDNAKNTVYLQMNSLKPEDTAVYYCNAAPSWSTSFDSWGQGTQVTVSS | high polyreactivity |
| QVQLVESGGGLVQAGGSLRLSCAASGRTFRYNAMGWYRQATGKVRELVAAISGRGSSTYYADSVKGRFTISRDNAKNTVYLQMNSLKPDDTAVYYCAALPASVRRPGWHDYWGQGTQVTVSS | high polyreactivity |
| QVQLVESGGGLVQAGGSLRLSCAASGRTFRYNPMVWYRQAPGKERELVAAITWSGGSTYYADSVKGRFKISRDNAKNTVYLQMNSLKPEDTAVYYCNRRYYAYDWGQGTQVTVSS | high polyreactivity |
| QVQLVESGGGLVQAGGSLRLSCAASGRTFRYNVMGWYRQAPGKERELVAAIRKRSGSTYYADSVKGRFTISRDNAKNTVYLQMISLKPEDTAVYYCNTEYHYGTASASDYWGQGTQVTVSS | high polyreactivity |
| QVQLVESGGGLVQAGGSLRLSCAASGRTFRYYAIGWYRQAPGKERELVATISKSGGSTYYADSVKGRFTISRDNAKNTVYLQMNSLKPEDTAVYYCAAVGPYRWYDYWGQGTQVTVSS | high polyreactivity |
| QVQLVESGGGLVQAGGSLRLSCAASGRTFRYYALGWYRQAHGKERELVPRITRGATTNYADSVKGRFTISRDNAKNTVYLQMNSLKPEDTAVYYCAVTPLYGSDRRGWFSSDYWGQGTHVTVSS | high polyreactivity |
| QVQLVESGGGLVQAGGSLRLSCAASGRTFRYYAMGWYRPAPGKERELVAAINWSGGTTYYADSVKGRFTISRDNAKNTVYLQMNSLKPEDTAVYYCAAVYGYPSTSRYDYWGQGTQVTVSS | high polyreactivity |
| QVQLVESGGGLVQAGGSLRLSCAASGRTFRYYAMGWYRQAPGKERELFAAITSTGSTNYADSVKGRFTISRDNAKNTVYLQMNSLKPEDTAVYYCAARVNGKRRRYDYWGQGTQVTVSS | high polyreactivity |
| QVQLVESGGGLVQAGGSLRLSCAASGRTFRYYAMGWYRQAPGKERELVAAINRGGSTYYADSVKGRFTISRDNAKNTVYLQMNSLKPEDTAVYYCNVDKYRIVGFHSPYDYWGQGTQVTVSS | high polyreactivity |
| QVQLVESGGGLVQAGGSLRLSCAASGRTFRYYAMGWYRQAPGKERELVAAITSGGSTNYADSVKGRFTISRDNAKNTVYLQMNSLKPEDTAVYYCAAYWRSRNRFFWGQGTQVTVSS | high polyreactivity |
| QVQLVESGGGLVQAGGSLRLSCAASGRTFRYYAMGWYRQAPGKERELVADISWSGGRTTYADSVKGRFTISRDNAKNTVYLQMNSLKPEDTAVYYCAKVLYYPSHVSWGQGTQVTVSS | high polyreactivity |
| QVQLVESGGGLVQAGGSLRLSCAASGRTFRYYAMVWYRQAPGKEREWVASISSSGARTYYADSVKGRFTISRDNAKNTVYLRMNSQKPEDSAVYYCAASQRSGHPSYDYWGQGTQVTVSS | high polyreactivity |
| QVQLVESGGGLVQAGGSLRLSCAASGRTFRYYTKGWYRQAPGKERELVAAITYSGGSTYYADSVKGRFTISRDNAMNTVYLQMNSLKPVDTAVYYCAAKASGNYYYYWGQGTQVTVSS | high polyreactivity |
| QVQLVESGGGLVQAGGSLRLSCAASGRTFSAYAMGWYRQAPGKEREFVAAITFNTGSTYYADSVKGRFTISRDNAKNTVYLQMNSLKPEDTAVYYCAAALVGSVGYKGFDGFDYWGQGTQVTVSS | low polyreactivity |
| QVQLVESGGGLVQAGGSLRLSCAASGRTFSAYAMGWYRQAPGKERELVADIRRGGGTNYADSVKGRFTISRDNAKNTVYLQMNSLKPEDTAVYYCAAGYLRTYTRRYYWGQGTQVTVSS | high polyreactivity |
| QVQLVESGGGLVQAGGSLRLSCAASGRTFSAYTMGWYRQAPGKERELVAAITSGTSTYYADSVKGRFTISRDNAKNTVYLQMNSLKPEDTAVYYCNARDSGRWWHIGQSGEDYWGQGTQVTVSS | low polyreactivity |

| Sequence | polyreactivity (PSR sort gate) |
| --- | --- |
| QVQLVESGGGLVQAGGSLRLSCAASGRTFSDYAMGWYRQAPGKERELVAAISNGGNTYADSVKGRFTISRDNAKNTVYLQMNSLKPEDTAVYYCNKESGDTARQSIMPSGRGDYWGQGTQVTVSS | low polyreactivity |
| QVQLVESGGGLVQAGGSLRLSCAASGRTFSGNAMGWYRQAPGKEREFVAVISSNGGSTYYADSVKGRFTISRDNAKNTVYLQMNSLKPEDTAVYYCNARYWRGWGGRVSKYGYWGQGTQVTVSS | high polyreactivity |
| QVQLVESGGGLVQAGGSLRLSCAASGRTFSGNAMGWYRQAPGKERELVAAITGRGGTTYYADSVKGRFTISRDNAKNTVYLQMNSLKPEDTAVYYCAADTKLSYQWFDYWGQGTQVTVSS | high polyreactivity |
| QVQLVESGGGLVQAGGSLRLSCAASGRTFSGNTMGWYRQAPGKERELVAAITGRGGSTYYADSVKGRFTISRDNAKNTVYLQMNSLKPEDTAVYYCAALRYTFAGRFDYWGQGTQVTVSS | high polyreactivity |
| QVQLVESGGGLVQAGGSLRLSCAASGRTFSGYAMGWYRQAPGKERELVAAIDRGDGTNYADSVKGRYTISRDNAKNTVYLQMNSQIPEDTAVYYCAGDYSDGSTSLTYTGFVYWGQGTQVTVSS | low polyreactivity |
| QVQLVESGGGLVQAGGSLRLSCAASGRTFSGYAMGWYRQAPGKERELVAAISWRGGRTYYADSVKGRFTISRDNAKNTVYLQMNSLKPEDTAVYYCATTVGDAGRRYYYWGQGTQVTVSS | high polyreactivity |
| QVQLVESGGGLVQAGGSLRLSCAASGRTFSIYAMGWYRQAPGKERELVAAISRGVTTYADSVKGRFTISRDNAKNTVYLQMNSLKPEDTAVYYCNARTVVYVRGGYWGQGTQVTVSS | low polyreactivity |
| QVQLVESGGGLVQAGGSLRLSCAASGRTFSKYAMGWYRQAPGKERELVAAIRWSGGSTYYADSVKGRFTISRDNAKNTVYLQMNSLKPEDTAVYYCAKRSRGLKFDYWGQGTQVTVSS | high polyreactivity |
| QVQLVESGGGLVQAGGSLRLSCAASGRTFSKYTMGWYRQEPGKESELVAVISRSGTRTYYADSVKGRFTISRDNANNTVYLQMNSMKPEDTAVYYCAAKDERRSFGMGYWGQGTQVTVTS | high polyreactivity |
| QVQLVESGGGLVQAGGSLRLSCAASGRTFSLNAMGWYRQAPGKERELVAAINRGGTTYYADSVKGRFTISRDNAKNTVYVQMNSLKPEDTAVYYCAARYISSYDWGQGTQVTVSS | high polyreactivity |
| QVQLVESGGGLVQAGGSLRLSCAASGRTFSLYTMGWYRQAPWKERELVASITSSGSTSYADSVKGRFTISRDNAKNTVYLQMNSLKPEDTAVYYCNAAVSYPKYPYVSPGVPSYDYWGQGTQVTVSS | low polyreactivity |
| QVQLVESGGGLVQAGGSLRLSCAASGRTFSNNAMGWYRQAPGKERELVADITYSSDSTYYADSVKGRFTISRDNAKNTVYLQMNCLKPEDTAVYYCAADVVVGGSGSEYYYWGQGTQVTVSS | low polyreactivity |
| QVQLVESGGGLVQAGGSLRLSCAASGRTFSQNAMGWYRQAPGKERELVAAIRRGGSTNYADSVKGRFTISRDNEKNTVYLQMHSLKPEDTAVYYCAADLRRNGWGFDYWGQGTQVTVSS | high polyreactivity |
| QVQLVESGGGLVQAGGSLRLSCAASGRTFSRNAMGWYRPAPGKERQLVAAIRGSGTGTYYADSVKGRFTISRDNAKNTVYLQMNSLKPEDTPVYYSNADFISTRPPKATDEDYWGQGTQVTVSS | high polyreactivity |
| QVQLVESGGGLVQAGGSLRLSCAASGRTFSRNAMGWYRQAPGKERELVATITSDGSTNYADSVKGRFTISRDNAKITVYLQMNSLKPEDTAVYYCAAGEQSSIIGAHDYWGQGTQVTVSS | low polyreactivity |
| QVQLVESGGGLVQAGGSLRLSCAASGRTFSRYAMGWYRQAPGKERELVASITSRGGSTYYADSVKGRFTISRDNAKNTVYLQMNSLKPEDTAVYYCNVKPTYSTRYWEDYWGQGTQVTVSS | high polyreactivity |
| QVQLVESGGGLVQAGGSLRLSCAASGRTFSRYAMGWYRQAPGKERELVATINTRAGITNYPDSVKGRFTISRDNAKNTVYLQMNSLKPEDTAVYYCNRGRPGGPSWYHYVYWGQGTQVTVSS | high polyreactivity |
| QVQLVESGGGLVQAGGSLRLSCAASGRTFSRYTMGWYRQAPGKEREFVAAIDRGGGTTYYADSVKGRFTISRDNAKNTVYLQMNSLKPEDTAVYYCAAERNYWSTQYYYWGQGTQVTVSS | high polyreactivity |
| QVQLVESGGGLVQAGGSLRLSCAASGRTFSRYVMGWYRQAPGKERELVATISDVGNTYYADSVKGRFTISRDNAKNTVYLQMNSLKPEDTAVYYCNRVYFTSRQGQMYYWGQGTQVTVSS | high polyreactivity |
| QVQLVESGGGLVQAGGSLRLSCAASGRTFSSNAMGWYRHAPGKERELVAAISFRGGRTFYADSVKGRFTISRDNAKNTGFLQMNSLKPEDSAVYYCNAVPETRSYDYWGQGTQVTVSS | high polyreactivity |
| QVQLVESGGGLVQAGGSLRLSCAASGRTFSSNAMGWYRQAPGKEREFVAVISSGGSTYYADSVKGRFTISRDNAKNTVYLQMNSLKPEDTAVYYCAAAVGPSGYYYESDYWGQGTQVTVSS | high polyreactivity |

From the nanobody polyreactivity screen of Harvey et al. (2022)
